US6949357

Molecular target: rabbit polyclonal antiserum against the BL172 synthetic peptide of SEQ ID NO: 20
Experiment: competition Western blot; antiserum pre-incubated overnight at 4 C with varying concentrations of peptide immunogen

concentration of peptide at which antibody binding to the band was inhibited: 2.9 µM
Binder: TQTCGNCTFRVCFEQCCPWTFMVKLINQNCD [BL172 synthetic peptide of SEQ ID NO: 20]
